Tested on: MS2 coat protein
Assay: apparent KD of MS2 coat protein; designed switch direction (-1 OFF switch, 1 ON switch): -1; higher = weaker reporter binding
Procedure, shortened: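 An oligonucleotide input, 200 uM small-molecule ligand, or no input was present during titration of SNAP-549-labelled MS2 coat protein, which was doubled from 0.7 or 1.5 nM to 3 µM. Designed RNA switches had been transcribed on Illumina chips by stalled E. coli RNA polymerase. Apparent KD per design is the median over clusters of curves fitted to normalised cluster fluorescence.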

[1] = Eterna round: R95, input ligand: microRNA oligo, concentration not stated
[2] = Eterna round: R95, input ligand: FMN 200 uM
[3] = Eterna round: R95, input ligand: none
[4] = input ligand: microRNA oligo, concentration not stated

Sequence	apparent KD of MS2 coat protein [1] [nM]	apparent KD of MS2 coat protein [2] [nM]	apparent KD of MS2 coat protein [3] [nM]	apparent KD of MS2 coat protein (input ligand: FMN 200 uM) [nM]	apparent KD of MS2 coat protein [4] [nM]	apparent KD of MS2 coat protein (input ligand: none) [nM]
CGUGACUCAGGAUAUCUAUAAUAUCACAUGAGGAUCACCCAUGUCCAGCAAUAGCUGGAGGGAGAAGGGAGUCACG [Fiskers Ex 5 - 40] (puzzle: Exclusion 5)	195	–	–	–	–	–
CGUGACUGAGGAUAUCUAUAUUAUCACAUGAGGAUCACCCAUGUCCAGCGAAAGCUGGAGGGAGAAGGCAGUCACG [Fiskers Ex 5 - 28] (puzzle: Exclusion 5)	49.8	17.1	32.4	–	–	–
CGUUCGCGUGUAGGAUAUGUGUCUGUGUCGGGCGCAGAAGGACAUGAGGAUCACCCAUGUCUGCGGGUGUGGGCGCUCUCUGCG [-29, -28 kcal A 14%] (Eterna round: R96, puzzle: Exclusion NG 1)	–	–	–	69.6	18.2	26.9
CGUUGAAUAGGAUAUACAUGAGGAUCACCCAUGUGAAAUUAUAGUGAGGAAAUGAAAAGUAGAAGGGUUUGACA [Mod of Mat 8 - Jieux - Exclusion 3] (Eterna round: R97, puzzle: Exclusion 3)	–	–	–	27.6	–	30.4
CGUUGCAGAGGAUAUACAUGAGGAUCACCCAUGUGAAAUUAUAGUGAGGAAAUGAAAAGUAGAAGGCUGUGACA [Mod of Mat 11 - Jieux - Exclusion 3] (Eterna round: R97, puzzle: Exclusion 3)	–	–	–	267	–	47.3
CGUUGGAAAGGAUAUACAUGAGGAUCACCCAUGUGAAAUUAUAGUGAGGAAAUGAAAAGUAGAAGGUUCUGACA [Mod of Mat 6 - Jieux - Exclusion 3] (Eterna round: R97, puzzle: Exclusion 3)	–	–	–	61.2	–	25
CUAAAUCAUGUAGGAUAUGCGUGGCAAAGCUAUGCAGAAGGACAUGAGGAUCACCCAUGUCAUUCCGUCUGCGUACAGACGGGA [Mat - Exclusion NG 1 - Mod of JL - D49] (Eterna round: R96, puzzle: Exclusion NG 1)	–	–	–	187	19.9	24.9
CUAAAUCAUGUAGGAUAUGCGUGGCAAAGCUAUGCAGAAGGACAUGAGGAUCACCCAUGUCAUUCCGUCUGGAGACAGACGGGA [Mat - Exclusion NG 1 - Mod of JL - D54] (Eterna round: R96, puzzle: Exclusion NG 1)	–	–	–	182	20.7	25
CUAAAUCAUGUAGGAUAUGCGUGGCAAAGCUAUGCAGAAGGACAUGAGGAUCACCCAUGUCUUUCCGUCUGAGUACAGACGGGA [Mat - Exclusion NG 1 - Mod of JL - D46] (Eterna round: R96, puzzle: Exclusion NG 1)	–	–	–	166	21.7	26.6
CUAAUUCAAGGAUAUACAUGAGGAUCACCCAUGUGAGGGAGUGACAAGUUGUCGGGAUGUAGAAGGUGACCUAG [Eternabot (L2) Solution 36] (Eterna round: R97, puzzle: Exclusion 3)	–	–	–	417	–	411
CUACCCUCAGGAUAUUUUGCACUGUACAUGAGGAUCACCCAUGUGACGUCUGUUAAUCAAAGAGAAGGGAGAGGUG [Eternabot (L1) Solution 27] (Eterna round: R97, puzzle: Exclusion 5)	–	–	–	19.7	–	25.1
CUACUGAAGCUUUGCUUUAGUCGACAUGAGGAUCACCCAUGUUAGGAUAUGGUAGGCUUUGCUUACUAGAAGGAUAGAGUGAUC [salish99_ExNG3_r04_603] (Eterna round: R96, puzzle: Exclusion NG 3)	–	–	–	121	55.9	54.8
CUACUGAAGCUUUGCUUUAGUCGUACAUGAGGAUCACCCAUGUAGGAUAUACAUGAGGAUCACCCAUAGAAGGAUAGAGUGAUC [salish99_ExNG3_r04_602] (Eterna round: R96, puzzle: Exclusion NG 3)	–	–	–	36.1	31.2	38.6
CUAGAUCUUCGGAUCUAGUACAUGAGGAUCACCCAUGUUACGAGCAGAUCUUCAUACAAGCUUUUUGCUCGUCUUAU [Sensor v3 - Turn-off variant 1 - 33] (puzzle: Sensor v3, turn-off variant 1)	19.5	33.4	30.7	–	–	–
CUAGCGAAUGUAGGAUAUCGGACUGUUUCAGUCUGAGAAGGACAUGAGGAUCACCCAUGUGAAGCUACGUGAGUAGCACGCUAG [JL ENG1 3.86] (Eterna round: R96, puzzle: Exclusion NG 1)	–	–	–	111	18.7	23.2
CUAGCUUCGGCUAGUACAAGCUUUUUGCUCGUCUUAUUAACAUGAGGAUCACCCAUGUACAAGAGACCUCAUGUAUU [Sensor v3 - turn-off variant 2 - 10] (puzzle: Sensor v3, turn-off variant 2)	14.6	188	249	–	–	–
CUAGGGCACAAUUAAACACCCUAACAUGAGGAUCACCCAUGUCAGGAUAUGUAGGCAAAGACCCUACAGAAGGGACAUGUCCUA [Laus] (Eterna round: R96, puzzle: Exclusion NG 3)	–	–	–	21.1	9.38	15.2
CUAGUAUAUCAGGAUAUGAUUUUAUAUAUUGGAUCAGAAGGGAUGACAUGAGGAUCACCCAUGUUGAGGAGUGA [JR_Ex6_Sub039] (Eterna round: R97, puzzle: Exclusion 6)	–	–	–	257	–	103
CUAGUGUAAGGAUAUGCCUGGCCGUGAGGCCAGAUUGAAUAGCAGAAGGUACAUGAGGAUCACCCAUGUACGGG [jl-ex4-4.62 ViennaUCT mod] (Eterna round: R97, puzzle: Exclusion 4)	–	–	–	279	–	26.4
CUAUAAGGUGUUAGGAUAUCGGCUCGAGGUACUAGCGAGAAGGAACAUGAGGAUCACCCAUGUGGUCAUGAUUU [Eternabot (L2) Solution 60] (Eterna round: R97, puzzle: Brourd's mod of Exclusion 4)	–	–	–	152	–	139
CUAUUCCGAGGAUAUACAUGAGGAUCACCCAUGUCGGGCCUCCGCGUUUCGCGCCUCAGUAGAAGGCGGGUUUC [JL Riri mod 1] (puzzle: Exclusion 3)	18.3	–	–	–	–	–
CUCAAACAUGAGGAUCACCCAUGUGAGGAUAUGAUGCGAUCGUCGAAAGACGAUAGCAUCAGAAGGUACAAAUG [Fiskers Ex 1 - 23] (puzzle: Exclusion 1)	37.9	37.7	54.2	–	–	–
CUCACGUCAGGAUAUCUACAUUAAAUUGGUAACCAAGCAUGAGAGAAGGGACAUGAGGAUCACCCAUGUAAAAC [Ceisusma] (Eterna round: R97, puzzle: Exclusion 4)	–	–	–	42.4	–	48.7
CUCAUGUCAGGAUAUUAAGUCCGUAGCCUAUGGCUGCAACAUGAGAAGGGACAUGAGGAUCACCCAUGUCGGGA [Edceleon] (puzzle: Exclusion 4)	34.3	–	–	–	–	–
